Several values for one entry are separate records, joined by “and”; a condition that tells them apart may be missing. Equal values may be shown once.
Target: T1, endogenously expressed σ1R of mouse brain cortex (mouse (endogenous in brain cortex)), O55242
T1 chain: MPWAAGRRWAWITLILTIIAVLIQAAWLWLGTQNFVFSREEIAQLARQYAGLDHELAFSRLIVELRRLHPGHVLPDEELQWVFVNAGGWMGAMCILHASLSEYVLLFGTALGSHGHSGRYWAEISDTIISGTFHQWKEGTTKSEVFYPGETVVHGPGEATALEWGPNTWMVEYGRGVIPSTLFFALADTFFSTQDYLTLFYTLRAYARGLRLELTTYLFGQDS
Experiment: SDS-PAGE western blot without heat denaturation; mouse brain cortex homogenised in lysis buffer, samples kept on ice, same protocol as for the transfected cells
Settings: remark: other sources report otherwise

stoichiometry N: 2 and 4
B1: endogenously expressed σ1R of mouse brain cortex, O55242 1-223 (receptor)
chain: T1 chain
